PMC4632033

Molecular target: T1, XisR (YdaQ), rac excisionase (Escherichia coli K-12 (BW25113; MS match MG1655)) (UniProt P76057)
T1 sequence: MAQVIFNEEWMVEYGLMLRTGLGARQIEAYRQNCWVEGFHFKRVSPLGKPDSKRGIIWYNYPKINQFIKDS
Experiment: EMSA
Conditions: LightShift Chemiluminescent EMSA kit protocol (binding buffer not stated), 25 C, 1 h; 0.5x TBE polyacrylamide gel; protein stored in 20 mM Tris-HCl, 500 mM …

Sequence | binding
AGATTTCTTATGCTGGGCGTTCCGGCATGACGCATACTCTTCTGATGCCATATAACGAATTGAGTCGCTTTTAAATGTCGCAAAATCAAGAAATTAGTAAGAAAGAACAATACAACCTGAACAAGTAAGGGCAAAAATCACAACTCTCTGACTCATAAGTATTTTACTTATTTTTCAATGTGTTAAATATCATCAGCGACAACAATAAGCTACGATAATCCACTCTTTTTTTGCCCCTTTTTTGCCCCTTTTGCAGCGTTTTGCCCCATTTTTGCCACCGAAAAAAATTCCAAA (double strand) [AttR] | binds
CTATATGCCTTTGATGCGGAGGAATGAATGTGATGGGAGTGATGTATCTGAATAGTTGAAAAACCGCAGTCACGTCGTATGCAAGAACGTGCTGCGGTTGGTTTGACTTTGATTGAGACGTTTTGGAATTTTTTTCGGTGGCAAAAATGGGGCAAAACGCTGCAAAAGGGGCAAAAAAGGGGCAAAAAAAGAGTGGATTATCGTAGCTTATTGTTGTCGCTGATGATATTTAACACATTGAAAAATAAGTAAAATACTTATGAGTCAGAGAGTTGTGATTTTTGCCCTTAC (double strand) [AttM] | no binding
